Experimental data taken from patent US9266939B2, “Compositions comprising natriuretic peptides and methods of use thereof” (Alexion Pharmaceuticals, Inc., priority 2010, dated 2016).

Molecular target: T1, NPR-B (Homo sapiens, UniProt P20594)
T1 sequence (P20594 23-1047): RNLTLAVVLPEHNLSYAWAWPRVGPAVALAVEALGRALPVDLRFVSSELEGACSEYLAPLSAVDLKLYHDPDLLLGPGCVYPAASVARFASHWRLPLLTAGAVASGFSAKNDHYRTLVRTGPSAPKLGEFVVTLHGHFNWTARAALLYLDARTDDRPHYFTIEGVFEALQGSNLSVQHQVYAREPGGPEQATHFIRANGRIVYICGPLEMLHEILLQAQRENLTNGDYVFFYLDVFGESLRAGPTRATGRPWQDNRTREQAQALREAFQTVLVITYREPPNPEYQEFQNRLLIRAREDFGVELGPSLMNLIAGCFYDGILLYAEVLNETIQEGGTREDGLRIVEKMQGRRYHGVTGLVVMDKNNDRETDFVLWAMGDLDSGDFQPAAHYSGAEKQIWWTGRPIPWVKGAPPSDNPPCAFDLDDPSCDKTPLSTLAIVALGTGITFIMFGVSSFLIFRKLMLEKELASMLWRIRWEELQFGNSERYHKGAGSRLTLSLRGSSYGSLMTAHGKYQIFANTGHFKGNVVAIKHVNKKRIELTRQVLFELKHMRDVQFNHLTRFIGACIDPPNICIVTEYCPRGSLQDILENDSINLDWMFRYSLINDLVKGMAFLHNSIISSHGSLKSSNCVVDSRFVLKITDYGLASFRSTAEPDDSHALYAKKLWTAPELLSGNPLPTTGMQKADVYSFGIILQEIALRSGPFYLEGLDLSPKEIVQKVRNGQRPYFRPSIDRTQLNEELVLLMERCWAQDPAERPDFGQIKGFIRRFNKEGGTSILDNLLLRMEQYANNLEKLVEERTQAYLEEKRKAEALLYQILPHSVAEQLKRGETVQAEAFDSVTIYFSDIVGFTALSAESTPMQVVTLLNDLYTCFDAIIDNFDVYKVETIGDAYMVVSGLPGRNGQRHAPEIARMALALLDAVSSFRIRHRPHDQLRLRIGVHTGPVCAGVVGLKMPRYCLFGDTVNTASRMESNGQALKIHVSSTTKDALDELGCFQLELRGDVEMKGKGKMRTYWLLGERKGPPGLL
Assay: Whole cell guanylyl cyclase (cGMP) assay, NPR-B
Assay type: cell-based
Parameters: expressed in transfected cells
Method in brief: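 HEK293S cells, transiently transfected or stably expressing human NPR-B, treated in triplicate with increasing test-protein concentrations in serum-free DMEM with 1 mM IBMX and 0.5% BSA, 37° C, 30 min to one hour; CNP as reference. Lysate cGMP measured by Catchpoint kit; four-parameter logistic fit of dose-response curves.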

[1] = NPR-B whole cell assay (FIG. 21C)
[2] = projected from relative activities of CNP22 and NC2st in NPR-B whole cell assays

NC2st: Fc-CNP fusion: Strep-tag II, TEV site, human IgG-1 Fc, 16-amino acid glycine-rich linker, CNP22; SEQ ID NO: 502
efficacy relative to CNP [1]: 84% | potency relative to CNP (times less than that of CNP) [1]: 83 times | projected targeted NC2st concentration to achieve 50% reversal of ACH phenotype [2]: 345 (±95 S.D.) nM | projected targeted NC2st concentration to achieve >100% reversal of ACH phenotype [2]: 1214 (±446 S.D.) nM
